The data set is described as follows: label from the status in PepcDB records.
Turning to “MENNPNNNQASLERNELHNTIWKVANELRGSVDGWDFKQYVLGILFYRYISENMTHYINKEERKRDPSFDYAKLSDEKAERGRKHLIEQKGFFIPPSALFCNALKNACHNEDLNVTLQNIFNEIEKSSLGTPSEENVKGLFADLDVNSNKLGSSHQNRVEKLTKILEAIGGMQLGDYLKSGIDVFGDAYEYLMAMYASNAGKSGGEFFTPQEVSELLAKITLHGQESVNKVYDPCCGSGSLLLQFSKVLGDKNVSKGYFGQEINLTTYNLCRINMFLHDINYSKFHIAHGDTLLDPKHEDDEPFDAIVSNPPYSTKWVGDSNPILINDERFSPAGVLAPKNAADLAFTMHMLSYLSNSGTAAIVEFPGVLYRGNAEAKIREYLVKENVIDCVIALPDNLFFGTSIATCILVLKKNKQDDTTLFIDASKEFVKEGKKNKLKERNREKILQTYIERKEIKHFCALANIEKIKENDYNLSVNRYVEQEDTKEAIDIKALNSEIAQIVEKQSALRNRLESIIKELEGGQNA”, the protein production result is reported as “failed”. To “MKKNIVVLVLIVLIIFSAGSGCISSDVISSANTSSDEADGNTGENSALGKSADSEPDQANITPYGKSSPYLYWEYELGDVTPENTLGGRSSVQDCVSFAPDGKSVATGTGSNLTVVSVSEKNVLWTKILSGNISDLTFSEDGKYLLVGEKSADGCIYSLDANTGEEIRTYRTSDDLGTDSNPKYQPCIYKITAAEDSVYVAAGRYWKDSKYGLASRVYGFSPDGTFSWKLPATENYARSVNWIDASQDGKNVVYSIGDWTNSLESDAVVYSVDAGGKLRWKYEIPALRPYFVSAAIWHGLDVSEDGSLVTAYTGDGRTYLFYDAEMKDPGDGKSEWYSEEYQSNVTTPEELEGSAIYTYGENAKIAADNEILYLTGATLPAYYPDNIPMAHPLENSLISCDAEKGETSWTYNLGGRCAGIFFSQDMRYFVLPVGKDTSTGDTRVHGVYVFDSRKSGNGNSKLLWTFRTEGVVENAAISSNCTVAAVEVPLQLENGDVTGKHRLIIVR” belongs “failed”. For “MLAILYDRIRPDERMLFERAEALGLPYKKVYVPALPMVLGERPKELEGVTVALERCVSQSRGLAAARYLTALGIPVVNRPEVIEACGDKWATSVALAKAGLPQPKTALATDREEALRLMEAFGYPVVLKPVIGSWGRLLAKVTDRAAAEALLEHKEVLGGFQHQLFYIQEYVEKPGRDIRVFVVGERAIAAIYRRSAHWITNTARGGQAENCPLTEEVARLSVKAAEAVGGGVVAVDLFESERGLLVNEVNHTMEFKNSVHTTGVDIPGEILKYAWSLAS” the value was “not failed”; for “GTVLVSIKSSLPENNFFDDALIDELLQQFASFGEVILIRFVEDKMWVTFLEGSSALNVLSLNGKELLNRTITIALKSP”, “not failed”. For the sequence “MLKLTATKQTSQQRSLKMNTLTKLLAATMTLSAQAMAATPLTLDVYNADGNSFHVNATVVYGETEAMVVDTGFTKADALRIGAKVLDSGKTLKTIFISQADPDYYFGAEVLKQMFPQAEVIATPGVKAKIEQKLQGKLDFWAPKMGANAPVKPVLPTAYQGKTLEIDGQTIEIRGTEGELKHRPYLWIPANAAILGNVAVYGNVHLWMADAQTDSERKAWAEQLDEMAALKPKVVIPGHMTPGTAMDSSAITFSQKYLADFAKAKASSKNSAQLIEKMSKIYPDAGLPMALEIGAKVHTGEMKW”, the protein production entry is “failed”. As to “MTETYNKEQQEAMKKMMSFQMLYMLIMLGSLFIVITPSSRDAVGNLLNVVLIPTIGFGYRYPLLSIILTGVIIGVILSIPRYFFTDWVKMGKMQNTMKAFNEAIRAAYRERDMKKINKLNSMRMQMSMDQYQLSMNTMKPLLVISVLTILFYAWLFVFVGKIPYNYIAFPWDFNINISTAHFWIMPYWIFMYFLTEIVVSYFITMIMKYIDFTLRLRRISRETSS”, the protein production entry is on record as “failed”. To “MTYLVTGATGGLGGYALNYLKELVPMTDIYALVRSEEKGADLKAAGFNIRIGDYSDAESMKQAFAGIDRVLFVSGAPGNRQVEHENVVNTAKEAGVSYIAYTSFADADNSTSALAADHIFTEKVIEKSGIEHTFLRNNWYFENEMPMIGGALNGGKFVYAAGNGKTGWALKREYAEVAAKAVAGARFPEILELSGPVMTYAELTEALKEATGKDFEVISSDDKGFVENLVNVGMPQPVAEMFLSFQHDIKNNQLDVTSGDFEKALGKPLTNRVDALRELLQ” belongs “failed”; to “MKSADQLMSDIQLSLQALFQKIQPEMLESMEKQGVTPAQLFVLASLKKHGSLKVSEIAERMEVKPSAVTLMADRLEQKNLIARTHNTKDRRVIDLSLTDEGDIKFEEVLAGRKAIMARYLSFLTEEEMLQAAHITAKLAQAAETDEKQNMKRGNG”, “not failed”.
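Also: failed if final PepcDB status was selected cloned or expressed and not failed if soluble or beyond.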
